The results in this text go back to US20210371498A1, “MHC CLASS I COMPOSITIONS AND METHODS” (priority 2020, published 2021).

Where two headings read alike, the source gives them in different places.

Experiment [1] has as its target T1, HLA-A*02:01 (Homo sapiens, UniProt P04439, D140Y/D185E/D98H/E176V/E277Q/G131W/G231S/I119V/I121R/I166T/I218V/L300P/L318F/N151K/N90K/P208A/P217A/Q86G/Q94H/R138H/R169H/T345S).
T1 construct: Plasmid DNA encoding the BirA tagged luminal domain of MHC-I heavy chains HLA-A*02:01; made in house; Drosophila S2 cells (TAPBPR); gTAX synthetic (Genscript)
The format is binding.

Experiment [2] addresses T2, gTAX/HLA-A*02:01 (Homo sapiens, UniProt P04439, D140Y/D185E/D98H/E176V/E277Q/G131W/G231S/I119V/I121R/I166T/I218V/L300P/L318F/N151K/N90K/P208A/P217A/Q86G/Q94H/R138H/R169H/T345S).
T2 construct: Plasmid DNA encoding the luminal domain of class I MHC (MHC-I) heavy chain HLA-A*02:01; made in house; Drosophila S2 cells (TAPBPR); gTAX synthetic (Genscript)
Kind of experiment: Native gel electrophoresis of TAPBPR-catalysed peptide exchange on gTAX/HLA-A*02:01 (Example 1). The format is biochemical. Conditions: overnight incubation, 10-fold molar excess of peptide, with TAPBPR.

In experiment [3] the target is T1, HLA-A*02:01. The experiment is classed as binding. The following applies: p*MHC-I/gTAX incubated with peptide and TAPBPR, 12% native gel.
Where [4] appears, read: p/HLA-A*02:01 prepared by TAPBPR-mediated peptide exchange, 10-fold molar excess of peptide, overnight 4° C., DSF first derivative, ± SD of 3 replicates.

Regarding ALNTPKDHI [Peptide 26], the Tm in experiment [1] (setting [4]) was determined as 44.4 ± 0.6 °C. As for WLMWLIINL [Peptide 9], in experiment [1] (setting [4]), the Tm was determined as 42.4 ± 4.0 °C. Turning to “YPNVNIHNF [non-specific peptide, non-specific gp29 peptide used as a negative control]”, in experiment [2], the “peptide exchange on gTAX/HLA-A*02:01 (native gel)” value is “no exchange was observed”. Also, the “band of exchanged pMHC-I on native gel” value in experiment [3] is reported as “no condensed band”. With NLNESLIDL [Peptide 4], the Tm in experiment [1] (setting [4]) was 47.3 ± 0.6 °C. ALNTLVKQL [Peptide 1]: the Tm in experiment [1] (setting [4]) worked out at 48.3 ± 0.6 °C. As to KLPDDFTGCV [Peptide 13], in experiment [1] (setting [4]), the Tm was found to be 53.3 ± 0.0 °C.

For the sequence IITTDNTFV [Peptide 24], the Tm in experiment [1] (setting [4]) was 42.4 ± 0.6 °C. In the case of RLNEVAKNL [Peptide 3], the Tm in experiment [1] (setting [4]) is 46.3 ± 0.6 °C. In the case of TLACFVLAAV [Peptide 12], the Tm in experiment [1] was 53.3 ± 0.6 °C. On to SMWALIISV [Peptide 25], for which the Tm in experiment [1] (setting [4]) came to 52.3 ± 0.6 °C. With GLIAIVMVTI [Peptide 23], in experiment [1] (setting [4]), the Tm worked out at 40.4 ± 0.6 °C.

With SLPGVFCGV [Peptide 11], the Tm in experiment [1] (setting [4]) amounted to 59.3 ± 0.0 °C. Regarding VLNDILSRL [Peptide 2], the Tm in experiment [1] (setting [4]) was 50.3 ± 0.0 °C. TLMNVLTLV [Peptide 15]: the Tm in experiment [1] was 61.2 ± 0.6 °C. As to LQLPQGTTL [Peptide 28], the Tm in experiment [1] (setting [4]) is 44.4 ± 1.1 °C. As for TTLPKGFYA [Peptide 32], in experiment [1] (setting [4]), the Tm is 46.3 ± 0.6 °C. SIIAYTMSL [Peptide 14]: the Tm in experiment [1] (setting [4]) came to 53.3 ± 0.6 °C. On to LLLDRLNQL [Peptide 7], for which the Tm in experiment [1] (setting [4]) was determined as 54.3 ± 0.6 °C.

As for GLMWLSYFI [Peptide 6], the Tm in experiment [1] (setting [4]) came to 41.4 ± 7.9 °C. GMSRIGMEV [Peptide 8]: the Tm in experiment [1] (setting [4]) came to 48.3 ± 0.0 °C.

In the case of VLQLPQGTTL [Peptide 21], the Tm in experiment [1] (setting [4]) was 39.4 ± 0.0 °C. For ILLNKHIDA [Peptide 16], the Tm in experiment [1] (setting [4]) is 43.4 ± 0.0 °C.

Regarding LLLQYGSFC [Peptide 31], the Tm in experiment [1] (setting [4]) stood at 47.3 ± 0.6 °C. Take LITGRLQSL [Peptide 29]: the Tm in experiment [1] (setting [4]) was 44.4 ± 0.6 °C. As to ILLLDQALV [Peptide 10], the Tm in experiment [1] (setting [4]) came to 52.3 ± 0.0 °C.

Regarding LALLLLDRL [Peptide 27], the Tm in experiment [1] (setting [4]) was found to be 43.3 ± 1.5 °C. As to LLLLDRLNQL [Peptide 22], the Tm in experiment [1] (setting [4]) stood at 42.4 ± 0.6 °C.

With VVFLHVTYV [Peptide 17], in experiment [1], the Tm turned out to be 52.3 ± 0.0 °C.
